The results in this text go back to the nanobody polyreactivity screen of Harvey et al. (2022).

The nature of the data set: yeast display, Sf9 membrane polyspecificity reagent, FACS + sequencing; frameworks hold sequencing errors. An outline of the steps:
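Polyreactivity labels are assigned by the sorting gate from which each nanobody was recovered. The gates were low and high (top ~1%), set on anti-HA fluorescence for expression and streptavidin fluorescence for reagent binding. Before sorting, galactose-induced (36–48 hours) yeast display cells were stained for 1 hour at 4 °C with 10% biotinylated, detergent-solubilized Sf9 membrane reagent.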
“QVQLVESGGGLVQAGGSLRLSCAASGSTFWGYTMGWYRPAPGKERELVAAITGSGGSTNYADSVKGRFTISRDNAKNTVYLQMNSLKPEDTAVYYCATQGITPSNSYDYWGQGTQVTVSS”: the “polyreactivity (PSR sort gate)” value is “low polyreactivity”.

As to “QVQLVESGGGLVQAGGSLRLSCAASGSTFWKYAMGWYRQAPGKEREFVAAITRSGGNTYYADSVKGRFTISRDNAKNTVYLQMNSLKPEDTAVYYCAKVYKLITSYRGFGYWGQGTQVTVSS”, the “polyreactivity (PSR sort gate)” value is reported as “high polyreactivity”.

Take “QVQLVESGGGLVQAGGSLRLSCAASGSTFWLYAMGWYRQAPGKERELVAAIRSGDRTNYADSVKGRFTISRDNAKHTVYLQMNSLKPEDTAVYYCAVRRWGTSFVEDDYWGQGTQVTVSS”: the “polyreactivity (PSR sort gate)” value is “low polyreactivity”.

In the case of “QVQLVESGGGLVQAGGSLRLSCAASGSTFWPNAMGWYRQAPGKERELVAAITGGGGTNYADSVKGRFTISRDNAKNTVYLQMNSLKPEDTAVYYCAAKKVNSRSHVKYYYWGQGTQVSVSS”, the “polyreactivity (PSR sort gate)” value is listed as “high polyreactivity”.

In the case of “QVQLVESGGGLVQAGGSLRLSCAASGSTFWPYAMGWYRQAPGKERELVAAITSSGGSTYYADSVKGRFTISRDNAKNTVYLQMNSLKPEETAVYYCAADWSNLGAYDYWGQGTQVTVSS”, the “polyreactivity (PSR sort gate)” value is on record as “low polyreactivity”.

In the case of “QVQLVESGGGLVQAGGSLRLSCAASGSTFWPYTMGWYRQAPGKERELVAAISLSGGSTYYADSVKGRFTISRDNAKNTVYLQMNSLKPEDTAVYYCAAEGGYQNWHYLYDYWGQGTQVTVSS”, the “polyreactivity (PSR sort gate)” value is listed as “low polyreactivity”.

For “QVQLVESGGGLVQAGGSLRLSCAASGSTFWSYTMGWYRQAPGKERELVARITGRGGSTYYADSVKGRFTISRDNAKNTVYLLMNSLKPEDTAVYYCAAGGGRYGFYRFDYWGQGTQVTVSS”, the “polyreactivity (PSR sort gate)” value is “low polyreactivity”.

In the case of “QVQLVESGGGLVQAGGSLRLSCAASGSTFWTNAMGWNRQAPGKERELVATITYSTGTYADSVKGRFTISRDNAKNTVYLQMNSLKPEDTAVYYCAATGVPGWVGFDYWGQGTQVSVSS”, the “polyreactivity (PSR sort gate)” value is “low polyreactivity”.

“QVQLVESGGGLVQAGGSLRLSCAASGSTFWVNALGWSRQAPGKERELVAVITVTGSRTYYADSVKGRFTISRDNAKNTVYLQMNTLKPEDTAVYYCAADRRRVQYKFDYWGQGTQVTVSS”: the “polyreactivity (PSR sort gate)” value is listed as “low polyreactivity”.

Turning to “QVQLVESGGGLVQAGGSLRLSCAASGSTFWVNAMGWYRQAPGKERELVAAISNSGGSTYYADSVKGRFTISRDNAKNTVYLQMNSLKPEDTAVYYCAAAGGVDYDYWGQGTQVTVSS”, the “polyreactivity (PSR sort gate)” value is given as “low polyreactivity”.

Consider “QVQLVESGGGLVQAGGSLRLSCAASGSTFWVNAMGWYRQAPGKERELVAAITVRGTSTYYADSVKGRFTISRDNAKNTVYLQMNSLKPEDTAVYYCAKGSLGSTRYYYWGQGTQVTVSS”, for which the “polyreactivity (PSR sort gate)” value is given as “low polyreactivity”.

With “QVQLVESGGGLVQAGGSLRLSCAASGSTFWVYGMGWSRQAPGKERELVADITSIGGSTYYADSVKGRFTISRDNAKNTVYLQMNSLKPEDTAVYYCAARETWYPYYWMGYWGQGTQVTVSS”, the “polyreactivity (PSR sort gate)” value is “high polyreactivity”.

Consider “QVQLVESGGGLVQAGGSLRLSCAASGSTFWYNDMGWYRQAPGKESELVAAITWTGDGTYYADTVKGRFTISRDNAKNTVYLQMNSLKPEDTAVYYCAAAYFQWSTSIVGLDAWYDYWGQGTQVTVSS”, for which the “polyreactivity (PSR sort gate)” value is “low polyreactivity”.

On to “QVQLVESGGGLVQAGGSLRLSCAASGSTFWYYAMGWYRQAPGKEREFVAAITTSAGRTYYADSVKGRFTISRDNAKNTVYLQMNSLKPEDTAVYYCAAEPRQYWEYNYWGQGTQVTVSS”, for which the “polyreactivity (PSR sort gate)” value is given as “high polyreactivity”.

Regarding “QVQLVESGGGLVQAGGSLRLSCAASGSTFWYYAMGWYRQAPGKERELVAAINGSGSRTYYADSVKGRFTISRDNAKNTVYLQMNSLKPEDTAVYYCAAGSLGRYYFKLDYWGQGTQVTVSS”, the “polyreactivity (PSR sort gate)” value is “high polyreactivity”.

Turning to “QVQLVESGGGLVQAGGSLRLSCAASGSTFWYYAMGWYRQAPGKERELVAAISVRGGSTYYADSVKGRFTISRDNAKNTVYLQMNSLKPEETGVYYCAAVSYKSHRYDYWGQGTQVTVSS”, the “polyreactivity (PSR sort gate)” value is listed as “high polyreactivity”.

On to “QVQLVESGGGLVQAGGSLRLSCAASGSTFWYYAMGWYRQAPGKERELVAAITRGASTNYADSVKGRFTISRDNAKNTVYLQMNSLKPEDTAVYYSAAGPARWKGYYWGQGTQVTVSS”, for which the “polyreactivity (PSR sort gate)” value is “high polyreactivity”.

As for “QVQLVESGGGLVQAGGSLRLSCAASGSTFWYYAMGWYRQAPGKERELVAAITSSGSTYYADSVKGRFTISRDNAKNTVYLQMNSLKPEDTAVYYCAAEQWYGYASYDYWGQVTQVTVSS”, the “polyreactivity (PSR sort gate)” value is recorded as “high polyreactivity”.

As to “QVQLVESGGGLVQAGGSLRLSCAASGSTFWYYAMGWYRQAPGKERELVADITISGGSTYYSDSVKGRFTISRDNAKNTVYLQMNSLKPEDTAVYYCATDDTHRVGWFDYWGQGTQVTVSS”, the “polyreactivity (PSR sort gate)” value was “low polyreactivity”.

As to “QVQLVESGGGLVQAGGSLRLSCAASGSTFWYYAMGWYRQAPGKERELVADITYSGVSTYYADSVKGRFTISRDNAKNTVYLQMNSLKPEDTAVYYCNADWGSVNGYSGYYYWGQGTQVNVSS”, the “polyreactivity (PSR sort gate)” value was “low polyreactivity”.

Consider “QVQLVESGGGLVQAGGSLRLSCAASGSTFWYYAMGWYRQAPGKERELVASITYSGGSTYYADSVKGRFTISRDNAKNTVYLQMNSLKPEDSAVYYCAAEGYYSNYHYWGQGTQVTVSS”, for which the “polyreactivity (PSR sort gate)” value is listed as “low polyreactivity”.

“QVQLVESGGGLVQAGGSLRLSCAASGSTFWYYGMGWYRQAPGKERELVAAITRGGSTYYADSVKGRFTISRDNAKNTVYLQMNSLKPEDTAVYYCAARPRYRAPYGYWGQGTQVTVSS”: the “polyreactivity (PSR sort gate)” value is recorded as “high polyreactivity”.

In the case of “QVQLVESGGGLVQAGGSLRLSCAASGSTFWYYGMGWYRQAPGKERELVAAITRGGSTYYADSVKGRFTISRDNAKNTVYLQMNSLKPEDTAVYYCARAPSYSTGVSIRDYWGQGTQVTVSS”, the “polyreactivity (PSR sort gate)” value was “high polyreactivity”.

“QVQLVESGGGLVQAGGSLRLSCAASGSTFYAKAMGLYRQAPGKEREFVAVITQSGGSTYYADSVKGRFTISRDNAKNTVYLQMNSLKPEDTAVYYCAKTHYRRSLSMYYWGQGTQVTVSS”: the “polyreactivity (PSR sort gate)” value was “low polyreactivity”.

As for “QVQLVESGGGLVQAGGSLRLSCAASGSTFYANAMGWYRQAPGKERELVAAIDWSGATTYYADSVKGRFTISRDTAKNTVYLQMNSLKPEDTAVYYCAAYRYRPHVHRYYRYDYWGQGTQVTVSS”, the “polyreactivity (PSR sort gate)” value is reported as “high polyreactivity”.

Regarding “QVQLVESGGGLVQAGGSLRLSCAASGSTFYAYAMGWYRQAPGKERELVAAITSRGGSTYYADSVKGRFTISRDNAKYTVYLELISLKPEDTAVYYCDARTCWWSRYYGSWGQGTQVTVSS”, the “polyreactivity (PSR sort gate)” value is given as “high polyreactivity”.

Regarding “QVQLVESGGGLVQAGGSLRLSCAASGSTFYAYTMGWYRQAPGKARELFGTISSSGGRTNYADSVKGRFTISRDNAKNTVYLQMNSLKPEDTAVYYCAARSRVRNLVNGYTGLWYDYWGQGTQVTVSS”, the “polyreactivity (PSR sort gate)” value is “high polyreactivity”.

“QVQLVESGGGLVQAGGSLRLSCAASGSTFYDNAMGWYRQAPGKERELVASIRSGGSTKYADSVKGRFTISRDNAKNTVYLQMNSLKPEDTAVYYCATAFIVPFPGSDYWGQGTQVTVSS”: the “polyreactivity (PSR sort gate)” value is on record as “low polyreactivity”.

As for “QVQLVESGGGLVQAGGSLRLSCAASGSTFYDYAMGWYRQAPGKERELVAAINGNGDSTYYADSVKGRFTISRDNAKNTVYLQMNSLKPEDTAVYYCAASGYRRYYGYDYWGQGTQVTVSS”, the “polyreactivity (PSR sort gate)” value is “low polyreactivity”.

For the sequence “QVQLVESGGGLVQAGGSLRLSCAASGSTFYDYAMGWYRQAPGKERELVASISISGGSTYADSVKGRFTISRDNAKNTVYLQMNSLKPEDTAVYYCAADSWGIGYGPDYEYWGQGTQVTVSS”, the “polyreactivity (PSR sort gate)” value was “low polyreactivity”.

With “QVQLVESGGGLVQAGGSLRLSCAASGSTFYDYAMGWYRQAPGKERELVASISISGGSTYADSVKGRFTISRDNAKNTVYLQMNSLKPEDTAVYYCNAKNYSWDDYYWVPDYEYWGQGTQVTVSS”, the “polyreactivity (PSR sort gate)” value is reported as “low polyreactivity”.

As to “QVQLVESGGGLVQAGGSLRLSCAASGSTFYDYVMGWYRQAPGKERELVAAITGDGTTDYADSVKGRFTISRDNAKNTVYLQMNSLKPEDTAVYYCNADISLDYDYWGQGTQVTVSS”, the “polyreactivity (PSR sort gate)” value is given as “low polyreactivity”.

In the case of “QVQLVESGGGLVQAGGSLRLSCAASGSTFYENAMGWYRQAPGKERELVAAITWSGGRTYYADSVKGRFTISRDNAKNTVYLQMNSLKPEDTAVYYCNARARSRKFYYWGQGTQVTVSS”, the “polyreactivity (PSR sort gate)” value is recorded as “high polyreactivity”.

In the case of “QVQLVESGGGLVQAGGSLRLSCAASGSTFYFNAMGWYRQAPGKEREFVAAITYSGGSTNYADSVKGRFTISRDNAKNTVYLQMNSLKPEDTAVYYCAARRYSYYYWYDYWGQGTQVTVSS”, the “polyreactivity (PSR sort gate)” value was “high polyreactivity”.

With “QVQLVESGGGLVQAGGSLRLSCAASGSTFYFNAMGWYRQAPGKERELVATISDNDGSTNYADSVKGRFTISRDNAKNTVYLQMNSLKPEDTAVYYCNADWYYYYEEDDYWGQGTQVTVSS”, the “polyreactivity (PSR sort gate)” value was “low polyreactivity”.

In the case of “QVQLVESGGGLVQAGGSLRLSCAASGSTFYFYAMGLFRQAPGKERELVAAITSSGGSTYYAESVKGRFTISRDNAKNTVYLQMISQKPEDTAVYYCATTYPQRYNGYDYWGQGTQVTVSS”, the “polyreactivity (PSR sort gate)” value was “low polyreactivity”.

For “QVQLVESGGGLVQAGGSLRLSCAASGSTFYGKAMGWYRQAPGKERELVDTISWSGGSTYYADSVKGRFTISRDNAKNTVYLQMNSVKPEDTAVYYCNAEITTKSLVTRYSWYGGDYWRQGTQVTVSS”, the “polyreactivity (PSR sort gate)” value was “low polyreactivity”.

On to “QVQLVESGGGLVQAGGSLRLSCAASGSTFYGNAMGWYRQAPGKERELVGAIRWRGGRTYYADSVKGRFTISRDNANNTVYLQMNSLKPEDTAVYYCNALPGVSHTQYDRVGYWGQGTQVTVSS”, for which the “polyreactivity (PSR sort gate)” value is listed as “high polyreactivity”.

For “QVQLVESGGGLVQAGGSLRLSCAASGSTFYGNDMGWYRQAPGKERELVAAISSGGSTNYADSVKGRFTISRDNAKNTVYLQMNSLKPEDTAVYYCAADDTPDTISGSDYWGQGTQVTVSS”, the “polyreactivity (PSR sort gate)” value is “low polyreactivity”.

As to “QVQLVESGGGLVQAGGSLRLSCAASGSTFYGNDMGWYRQAPGKERELVAAISSGGSTNYADSVKGRFTISRDNAKNTVYLQMNSLKPEDTAVYYCAADDTPDTMYGSDYWGQGTQVTVSS”, the “polyreactivity (PSR sort gate)” value is on record as “low polyreactivity”.

Regarding “QVQLVESGGGLVQAGGSLRLSCAASGSTFYGYTMGWYRRAPGKERELVAAITFRGGSTYYADSVKGRFTISRDNAKNTVYLQMNSLKPEDTAVYYCAAVGRYSRYPYSDTYGYWGQGTQVTVSS”, the “polyreactivity (PSR sort gate)” value is “high polyreactivity”.
